Reference: paper doi:10.1101/2021.06.14.448436

Biological target: human angiotensin-converting enzyme 2 (human) (UniProt Q9BYF1)
Test: SPR

UniProt Q9BYF1, sequence (Q9BYF1 18-805): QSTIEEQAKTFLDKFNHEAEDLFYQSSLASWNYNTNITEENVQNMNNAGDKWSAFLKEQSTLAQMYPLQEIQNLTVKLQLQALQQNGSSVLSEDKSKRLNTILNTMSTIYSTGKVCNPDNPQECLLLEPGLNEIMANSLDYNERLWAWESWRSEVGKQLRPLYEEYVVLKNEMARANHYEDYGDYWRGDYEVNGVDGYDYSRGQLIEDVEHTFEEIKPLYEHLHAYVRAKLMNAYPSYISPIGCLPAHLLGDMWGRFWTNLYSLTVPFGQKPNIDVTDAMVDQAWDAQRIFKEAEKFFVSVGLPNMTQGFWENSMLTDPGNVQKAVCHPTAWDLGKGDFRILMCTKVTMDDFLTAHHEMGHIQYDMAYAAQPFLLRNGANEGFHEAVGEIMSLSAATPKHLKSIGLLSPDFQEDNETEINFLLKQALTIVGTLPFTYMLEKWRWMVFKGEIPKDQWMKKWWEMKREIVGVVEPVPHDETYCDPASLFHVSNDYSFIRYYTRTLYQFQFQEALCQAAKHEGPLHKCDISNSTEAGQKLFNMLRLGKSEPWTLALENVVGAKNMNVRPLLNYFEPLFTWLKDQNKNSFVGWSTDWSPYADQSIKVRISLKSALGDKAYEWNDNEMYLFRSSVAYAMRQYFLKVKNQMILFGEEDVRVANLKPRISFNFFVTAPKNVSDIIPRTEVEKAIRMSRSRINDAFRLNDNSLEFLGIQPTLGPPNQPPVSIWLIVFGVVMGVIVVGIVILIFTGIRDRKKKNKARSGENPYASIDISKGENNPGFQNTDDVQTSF

In the case of “SARS-CoV-2 trimeric Spike protein, wild-type, prefusion-stabilised”, the Kd is reported as 6.4 nM.
